Test results as given in patent US20100292309A1.

Biological target: H-2Kb-restricted ova peptide SIINFEKL presented on H-2Kb (chicken)
Assay: cell-based or functional assay

Substance: transgenic OT-I T-cell receptor (TCR)
- IFN-gamma ELISPOT, spots per well (spots per well): > 1000
